Results taken from publication PMC5114558, “Reader domain specificity and lysine demethylase-4 family function” (Nature Communications, 2016).
Blank lines part the entries; values can stand above or below the binder they belong to. No end group written: not given here. Me3 = trimethyl-lysine

Columns and labels:
Settings in all cases: both partners purified
[1] = molecular target: T1, KDM4B-DTD S965D (human, UniProt O94953 917-1031, S965D); test: fluorescence polarisation; fluorescein-labelled histone peptide 3 nM, KDM4 DTD titrated 0.1-100 μM; 30 mM HEPES, 150 mM NaCl pH 7.4, 0.01% Triton X-100
T1 construct: Human KDM4B double tudor domain, residues 917-1031 of UniProt O94953 (isoform 1); also called KDM4B-S965D; source: E. coli BL21 (DE3), purified (Ni-NTA)
T1 sequence (looked up): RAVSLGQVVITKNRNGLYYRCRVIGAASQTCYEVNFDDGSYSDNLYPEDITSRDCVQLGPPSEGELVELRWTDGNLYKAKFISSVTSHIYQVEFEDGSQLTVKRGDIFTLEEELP

[2] = molecular target: T2, KDM4B-DTD N960A (human, UniProt O94953 917-1031, N960A); test: as above
T2 construct: Human KDM4B double tudor domain, residues 917-1031 of UniProt O94953 (isoform 1); also called N960A variant; source: E. coli BL21 (DE3), purified (Ni-NTA)
T2 sequence (looked up): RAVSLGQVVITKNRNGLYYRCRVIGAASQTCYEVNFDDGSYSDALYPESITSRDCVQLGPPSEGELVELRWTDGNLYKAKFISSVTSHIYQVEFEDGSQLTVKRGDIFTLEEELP

[3] = molecular target: T3, KDM4C double tudor domain (KDM4C-DTD), HaloTag-tagged, wild type (human, UniProt Q9H3R0 877-991); test: as above
T3 construct: Human KDM4C double tudor domain, residues 877-991 of UniProt Q9H3R0 (isoform 1); pFN29 construct; also called HT-KDM4 DTD; source: E. coli BL21 (DE3), purified (Ni-NTA); not shown: HaloTag, N-terminal, kept
T3 sequence (looked up): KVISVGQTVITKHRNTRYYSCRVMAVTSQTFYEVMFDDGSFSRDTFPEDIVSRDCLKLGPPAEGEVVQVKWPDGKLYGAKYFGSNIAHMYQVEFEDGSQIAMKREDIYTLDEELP

[4] = molecular target: T4, KDM4A double tudor domain (KDM4A-DTD), His6 tag cleaved, for crystallization (human, UniProt O75164 895-1011); test: crystal structure; KDM4A-DTD mixed with H3K23me3 peptide at about 1:1.5, crystallized at 20 °C in 100 mM CAPS pH 10.5, 200 mM lithium sulfate, 1.2 M NaH2PO4, 0.8 M K2HPO4
T4 construct: Human KDM4A double tudor domain, residues 895-1011 of UniProt O75164 (isoform 1); pET28 construct (pET28b in the plasmid section, pET28a in the purification section); also called N-His6-KDM4A-DTD; source: E. coli BL21 (DE3), purified (HisTrap, thrombin cleavage, gel filtration); not shown: His6, N-terminal, cleaved
T4 sequence (looked up): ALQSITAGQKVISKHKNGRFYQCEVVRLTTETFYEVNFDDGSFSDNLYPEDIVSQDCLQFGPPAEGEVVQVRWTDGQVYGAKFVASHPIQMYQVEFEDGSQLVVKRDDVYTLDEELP

[5] = molecular target: T5, KDM4A-DTD N931D (human, UniProt O75164 895-1011, N931D); test: fluorescence polarisation; fluorescein-labelled histone peptide 3 nM, KDM4 DTD titrated 0.1-100 μM; 30 mM HEPES, 150 mM NaCl pH 7.4, 0.01% Triton X-100
T5 construct: Human KDM4A double tudor domain, residues 895-1011 of UniProt O75164 (isoform 1); source: E. coli BL21 (DE3), purified (Ni-NTA)
T5 sequence (looked up): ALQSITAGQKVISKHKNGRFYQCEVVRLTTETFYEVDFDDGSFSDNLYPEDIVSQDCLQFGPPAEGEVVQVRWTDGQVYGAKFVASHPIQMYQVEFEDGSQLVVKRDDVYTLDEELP

Kd [1]: ~200 µM
Kd [2]: 303 µM
Kd [3]: 6.8 µM
Binder: ARTK(Me3)QTARKSTGGK (also: fluorescein label, end not given here) [H3K4me3 peptide, fluorescein-labelled]

binding result [4]: binds
B1: H3 (19-28) K23me3 peptide for co-crystallization (peptide, UniProt P68431 20-29, looked up)
peptide: QLATK(Me3)AARKS
notes: density seen for Q19-K27; also called H3K23me3 peptide; H3 (19-27) K23me3 peptide; source: synthetic peptide, bought: Peptide 2.0

Kd [5]: 12.2 µM
Binder: ARKSTGGK(Me3)APRKQLATK (also: fluorescein label, end not given here) [H3K14me3 peptide, fluorescein-labelled]
